Source: the supplement of paper PMC10567573

B1: EHMT1 (parent)
chain: FHKDCASRVNNASYCPHCGEESSK
B2: ZBED2 (parent)
chain: FHLAPARAGHHPNQYATCRLCGRQ

Variants of: B1
Experiment: protein stability index of a GFP-peptide fusion (GPS, HEK-293T) (PSI 1-6); higher = more stable
Conditions: c terminus: a fixed tail appended
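Note: lentivirally expressed fusions sorted by FACS into six bins by GFP to DsRed ratio, PSI derived from sequencing read proportions per bin multiplied by bin number.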

Protein stability index of substitutions, site by site:
E21: V 2.32, T 3.4, C 3.07, G 3.29, M 2.64, A 3.52, P 2.41, Y 2.63, K 3.22, W 2.8, S 2.71, D 3.22, R 2.92, I 2.83, L 2.55, N 3.17, H 3, Q 3.12, F 2.93
H17: W 2.16, V 3.54, S 3.4, Y 2.87, T 3.58, P 2.87, R 3.5, Q 3.21, N 3.85
S22: N 3.93, I 3.68, F 3.2, C 3.59, L 3.22, K 3.77, G 2.81, M 3.31, D 3.35, H 4.09, W 2.54, E 4.01, Y 3.36, A 3.46, Q 3.55, R 3.05, P 3.03, T 3.54, V 3.38
G19: A 3.93, P 3.75, M 3.55, K 3.65, W 2.96, C 3.59, Y 3.91, L 3.67, T 3.51, F 3, V 4.11, N 3.5, S 3.48, D 3.9, R 2.84, Q 3.35, E 4.05, I 3.87, H 3.36
S23: M 3.49, A 3.63, H 3.48, E 3.21, I 3.87, T 3.72, K 3.16, G 3.34, N 3.41, D 3.39, P 3.15, C 4.21, Q 3.89, Y 3.6, R 3.21, F 3.63, W 2.69, V 3.41, L 3.15
E20: Q 3.14, T 3.19, R 3.16, W 3.77, L 2.78, C 3.55, G 3.6, A 3.21, N 3.37, K 3.68, F 2.93, M 3.15, H 2.99, I 2.95, V 2.94, Y 3.46, S 3.16, P 3.27, D 3.92
K24: D 3.58, Q 3.49, F 3.07, L 3.43, A 2.92, N 2.99, H 3.45, Y 2.9, M 3.26, T 3.25, G 3.5, P 3.22, E 3.11, W 3.05, R 2.5, V 3.47, S 3.48, I 3.27, C 3.7
C18: D 4.03, Q 3.59, G 3.63, N 3.67, H 3.62, K 3.85, P 3.79, Y 3.16, I 3.04, F 2.93, R 3.73, A 3.76, V 3.75, L 2.76, T 3.58, W 2.31, S 3.68, E 4.36, M 2.96

Variants of: B2
Experiment: as above
Conditions: c terminus: a fixed tail appended

Protein stability index, by site and new letter:
A6: N 1.65, C 3, K 1.4, T 1.51, Q 1.8, W 1.36, G 2.54, R 1.77, V 2.15, F 1.68, P 1.93, E 2.36, D 1.89, Y 2.19, M 1.67, H 1.92, L 1.67, S 1.61, I 1.71
H2: C 1.66, M 2.43, F 1.42, N 2.65, K 1.95, D 2.41, P 2.78, T 2.76, Q 2.51, L 1.86, I 2.37, G 1.88, E 2.6, W 1.26, A 1.46, S 1.59
G9: C 3.72, S 2.51, T 2.44, W 2.05, N 2.11, I 1.84, H 2.22, V 1.37, F 1.77, P 1.69, Y 1.99, K 1.08, Q 2.11, A 1.86, E 1.97, M 2.27, D 1.83, L 2.55
H11: Q 1.29, M 2.35, D 1.46, F 1.98, G 2.01, A 2.48, C 2.12, K 1.58, P 1.4, V 1.98, E 2.04, N 1.39, I 1.33, T 1.95
R7: G 2.22, H 2.61, D 2.34, E 2.04, F 2.11, T 2.1, Y 2.09, V 1.73, S 1.4, P 1.92, K 2.59, N 2.15, I 1.55, A 1.74, M 2.13, Q 1.93, C 3.77, L 1.92
F1: H 2.46, I 2.21, W 1.59, C 2.58, K 2.53, M 2.1, E 3.31, V 2.74, D 3.36, T 2.45, G 1.71, R 2.77, Q 2.78, A 2.9, N 2.73, L 2.13, S 3.33, Y 1.43, P 3.07
A8: Q 2.02, T 1.83, L 2.47, I 2.73, C 3.28, P 2.56, W 3.08, N 2.31, H 1.75, M 2.75, G 2.87, Y 3.15, R 1.3, K 1.69, F 2.6, V 1.65, E 2.34, D 1.36, S 1.76
L3: S 1.45, N 2.23, I 1.38, Q 1.13, D 2.5, T 2.25, F 1.93, V 1.84, H 1.71, M 1.84, C 1.71, A 1.61, E 2.75, Y 1.95, G 1.53, K 2.09, P 3.45
A4: T 1.84, H 1.95, F 2.14, D 1.59, I 2.53, K 2.32, M 1.39, Q 1.91, C 2.48, G 2.19, N 1.48, L 1.17, E 2.05, S 2.74, W 2.73
H10: F 1.9, K 2.63, M 2.81, R 1.21, Y 1.7, Q 2.13, A 1.22, C 2.01, I 2.3, P 2.05, T 3.52, W 1.78, S 2.24, L 1.7, G 1.34, E 2.32, D 1.27, N 1.55, V 1.19
P5: S 1.24, I 2.13, R 1.64, F 2.03, N 1.84, E 2.36, H 1.99, A 2.78, Q 2.02, M 1.05, V 1.96, C 2.04, L 2, K 1.83, Y 1.52, T 2.32, G 1.77, D 2.83
